Laboratory results as given in publication PMC10058294, “Interaction of SARS-CoV-2 Nucleocapsid Protein and Human RNA Helicases DDX1 and DDX3X Modulates Their Activities on Double-Stranded RNA”.
Several values for one entry are separate records, joined by “and”; a condition that tells them apart may be missing. Equal entries are not always repeated.

Assays:
[1] = biological target: SARS-CoV-2 nucleocapsid protein (Np);DDX1 (SARS-CoV-2;Homo sapiens, UniProt P0DTC9;Q92499 1-419;1-740, |); assay: EMSA; Np titrated with fixed DDX1; details: protein: recombinant;recombinant; tags: His (pET30a(+), Ni-NTA purified);pET30a(+) vector; label: 5'-FAM on the 18 mer
[2] = biological target: T1, SARS-CoV-2 nucleocapsid protein (Np) (SARS-CoV-2, UniProt P0DTC9 1-419); assay: EMSA; details: protein: recombinant; tags: His (pET30a(+), Ni-NTA purified); chain copies: 2; label: 5'-FAM on the 18 mer
[3] = biological target: T1, SARS-CoV-2 nucleocapsid protein (Np); assay: EMSA; apparent, cooperative fit; details: protein: recombinant; tags: His (pET30a(+), Ni-NTA purified); chain copies: 2; label: 5'-FAM on the 18 mer
[4] = biological target: SARS-CoV-2 nucleocapsid protein (Np);DDX3X (SARS-CoV-2;Homo sapiens, UniProt P0DTC9;O00571 1-419;1-662, |); assay: EMSA; Np titrated with fixed DDX3X; details: protein: recombinant;recombinant; tags: His (pET30a(+), Ni-NTA purified);pET30a(+) vector; label: 5'-FAM on the 18 mer
[5] = biological target: T1, SARS-CoV-2 nucleocapsid protein (Np); assay: EMSA; time course; details: protein: recombinant; tags: His (pET30a(+), Ni-NTA purified); chain copies: 2; label: 5'-FAM; single strand

| Binder | Kd [1] [nM] | Kd [2] | Kd [3] [nM] | Kd [4] [nM] | binding result [5] |
| --- | --- | --- | --- | --- | --- |
| 18/38 mer FAM partially dsRNA (dsRNA) RNA 1: AUGAAGGUUUGAGUUGAGUGGAGAUAGUGGAGGGUAGU RNA 2: CUCAACUCAAACCUUCAU | 40 | 193 nM and 300 nM | 170 | 80 | – |
| CUCAACUCAAACCUUCAU (ssRNA) [ssRNA 18 mer FAM] | – | – | – | – | binds |
